Results as given in paper PMC10140031 (2023).

Biological target: human complement C3a (human, UniProt P01024 672-748)
Assay: SPR

human complement C3a, sequence (P01024 672-748): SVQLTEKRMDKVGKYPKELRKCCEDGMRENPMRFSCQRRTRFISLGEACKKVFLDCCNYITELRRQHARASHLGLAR

B1: His-ISG65_(18-363)-Avi, C-terminally biotinylated (domain or fragment)
chain: LLVIGSEDNRVPGDKKLTKEGAAALCKMKHLADKVAKERSQELKDRTQNFAGYIEFELYRIDYWLEKLNGPKGRKDGYAKLSDSDIEKVKEIFNKAKDGITKQLPEAKKAGEEAGKLHTEVKKAAENARGQDLDDDTAKSTGLYRVLNWYCITKEERHNATPNCDGIQFRKHYLSVNRSAIDCSSTSYEENYDWSANALQVALNSWEDVKPKKLESAGSDKNCNIGQSSESHPCTMTEEWQTPYKETVEKLRELEDAYQRGKKAHDAMLGYANTAYAVNTKVEQEKPLTEVIAAAKEAGKKGAKIIIPAAAPATPTNSTKNDDSAPTEHVDRGIATNETQVEVGID
modifications: biotin on the C-terminal Avi-tag (site-specific Avi-tag biotinylation)
B1 was tested, and the Kd was 18 µM.
